# Positions count from the first letter of the chain named.
# T1: human erythropoietin receptor (EpoR) on UT-7/Epo cells (human, UniProt P19235 25-508)
# T1 sequence (looked up): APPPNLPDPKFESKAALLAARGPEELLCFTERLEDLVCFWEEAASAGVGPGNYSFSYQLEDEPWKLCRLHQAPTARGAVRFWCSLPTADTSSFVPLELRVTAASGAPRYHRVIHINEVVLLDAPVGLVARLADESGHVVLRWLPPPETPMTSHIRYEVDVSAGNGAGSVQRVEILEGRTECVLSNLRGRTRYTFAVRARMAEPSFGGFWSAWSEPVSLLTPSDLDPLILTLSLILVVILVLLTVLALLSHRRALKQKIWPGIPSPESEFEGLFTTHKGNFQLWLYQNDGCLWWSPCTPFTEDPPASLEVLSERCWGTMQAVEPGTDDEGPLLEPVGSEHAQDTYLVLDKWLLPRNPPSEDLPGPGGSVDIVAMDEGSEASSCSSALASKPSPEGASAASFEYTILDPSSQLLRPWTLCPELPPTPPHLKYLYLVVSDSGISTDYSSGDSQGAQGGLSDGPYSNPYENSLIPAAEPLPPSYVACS
# T2: soluble EpoR (EposR), soluble recombinant human erythropoietin receptor (human) (UniProt P19235)
# T2 sequence (looked up): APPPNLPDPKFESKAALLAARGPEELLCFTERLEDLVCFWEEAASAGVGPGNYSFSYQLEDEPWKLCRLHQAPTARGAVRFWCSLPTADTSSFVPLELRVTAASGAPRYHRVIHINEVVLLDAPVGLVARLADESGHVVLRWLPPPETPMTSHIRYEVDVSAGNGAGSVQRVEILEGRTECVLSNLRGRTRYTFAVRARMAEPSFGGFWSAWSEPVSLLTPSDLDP
# T3: soluble EpoR (EposR), soluble recombinant human erythropoietin receptor (human, UniProt P19235 25-250, limits assumed)
# T3 construct: Called only 'soluble EpoR (EposR)'
# T3 sequence (looked up): T2 sequence (looked up)
# B1: Ab12 IgG2/K (antibody, V domains shown)
# VH: QVQLQESGPGLVKPSETLSLTCTVSGASISSYYWSWIRQPPGKGLEWIGYIYYSGSTNYNPSLKSRVTISVDTSKNQFSLKLRSVTAADTAVYYCARERLGIGDYWGQGTLVTVSS
# VL: DIQLTQSPSSLSASVGDRVTITCRASQGIRNDLGWYQQKPGKAPKRLIYAASSLQSGVPSRFSGSGSGTEFTLTISSLQPEDFATYYCLQHNTYPPTFGQGTKVEIK
# B2: Ab12.6 (antibody, V domains shown)
# VH: B1 VH with Y52G, Y53G, S54E
# VL: B1 VL
# B3: Ab12.56 (antibody, V domains shown)
# VH: B1 VH with Y52A, Y53G, S54T
# VL: B1 VL
# B4: Ab12.118 (antibody, IgG2, V domains shown)
# VH: B1 VH with Y52G
# VL: B1 VL
# B5: Ab12.119 (antibody, IgG2, V domains shown)
# VH: B1 VH with Y53G
# VL: B1 VL
# B6: Ab12.120 (antibody, IgG2, V domains shown)
# VH: B1 VH with S54E
# VL: B1 VL
# B7: Ab12.121 (antibody, IgG2, V domains shown)
# VH: B1 VH with Y52G, Y53G
# VL: B1 VL
# B8: Ab12.122 (antibody, IgG2, V domains shown)
# VH: B1 VH with Y53G, S54E
# VL: B1 VL
# B9: Ab12.123 (antibody, IgG2, V domains shown)
# VH: B1 VH with Y52G, S54E
# VL: B1 VL
# B10: Ab12 41/WT (scFv, part only; not given: display fusion parts and tags, part only)
# scFv fusion displayed on yeast, part: GENKVEYAPALMALSQVQLQESGPGLVKPSETLSLTCTVSGASISSYYWSWIRQPPGKGLEWIGYIYYSGSTNYNPSLKSRVTISVDTSKNQFSLKLRSVTAADTAVYYCARERLGIGDYWGQGTLVTVSSGGGGSGGGGSGGGGSDIQLTQSPSSLSASVGDRVTITCRASQGIRNDLGWYQQKPGKAPKRLIYAASSLQSGVPSRFSGSGSGTEFTLTISSLQPEDFATYYCLQHNTYPPTFGQGTKVEIK
# B11: Ab12 WT/WT (scFv)
# scFv: QVQLQESGPGLVKPSETLSLTCTVSGASISSYYWSWIRQPPGKGLEWIGYIYYSGSTNYNPSLKSRVTISVDTSKNQFSLKLRSVTAADTAVYYCARERLGIGDYWGQGTLVTVSSGGGGSGGGGSGGGGSDIQLTQSPSSLSASVGDRVTITCRASQGIRNDLGWYQQKPGKAPKRLIYAASSLQSGVPSRFSGSGSGTEFTLTISSLQPEDFATYYCLQHNTYPPTFGQGTKVEIK
# notes: not shown: Aga2/Xpress display part of pYD1 before the tether, and the C-terminal V5 and His tags
# B12: Ab12 41/34 (scFv)
# scFv: QVQLQESGPGLVKPSETLSLTCTVSGASISSYYWSWIRQPPGKGLEWIGYIYYSGSTNYNPSLKSRVTISVDTSKNQFSLKLRSVTAADTAVYYCARERLGIGDYWGQGTLVTVSSGHEAAAVMQVQYPASDIQLTQSPSSLSASVGDRVTITCRASQGIRNDLGWYQQKPGKAPKRLIYAASSLQSGVPSRFSGSGSGTEFTLTISSLQPEDFATYYCLQHNTYPPTFGQGTKVEIK
# notes: as for B11
# Biological target: T1, human erythropoietin receptor (EpoR) on …
# Experiment: cell-based or functional assay
row,Binder,"Emax (cell proliferation, absorbance) [absorbance]"
1,B1,1.98
2,B2,2.81
3,B3,2.51
4,B4,2.65
5,B5,2.53
6,B6,2
7,B7,2.3
8,B8,2.4
9,B9,2.7

# Biological target: T2, soluble EpoR (EposR), soluble recombinant human erythropoietin receptor (human)
# Experiment: equilibrium titration of soluble EpoR on yeast-displayed scFv at 37 C, flow cytometry, detection with MAB307 + anti-mouse RPE
Binder,EC50 (read off the curve) [nM],Kd [nM]
B10,6,5

# Biological target: T3, soluble EpoR (EposR), soluble …
# Experiment: as above
# Source text: FIG. 2 is a graph showing equilibrium binding of soluble EpoR with various Ab12 scFv constructs expressed on the surface of yeast cells. In FIG. 2, -▪- represents an Ab12 scFv construct comprising a Gly/Ser linker (WT), […] (SEQ ID NO:1) in both the tether and scFv linker positions, -●- represents an […] comprising linker 41, GENKVEYAPALMALS (SEQ ID NO:2) in the tether position and the Gly/Ser linker (WT) (SEQ ID NO:1) in the scFv linker position, -▴- represents an Ab12 scFv construct comprising linker 41 (SEQ ID NO:2) in the tether position and linker 40, […] (SEQ ID NO:3) in the scFv linker position, and -▾- represents an Ab12 scFv construct comprising linker 41 (SEQ ID NO:2) in the tether position and linker 34, […] (SEQ ID NO:4) in the scFv linker position.
# Various single stranded oligonucleotides encoding Ab12 scFvs were co-transformed with a linearized “gapped” vector derived from pYD1 (Invitrogen, Carlsbad, Calif.) into yeast by techniques well known to practitioners in the art. Cell surface protein expression was compared by incubating the transformed yeast with increasing concentrations of soluble EpoR (EposR) at 37° C. (FIG. 2). Bound antigen was detected using a monoclonal antibody to EpoR, MAB307 obtained commercially from R and D Systems (Minneapolis, Minn.) followed by anti-mouse phycoerythrin (PE, Southern Biotech, Birmingham, Ala.). […]
row,Binder,Kd [nM]
1,B11,9
2,B12,8.5
